Experimental data published in patent publication US20240026036A1 (AstraZeneca / MedImmune, published 2024).

What was measured:
[1] = biological target: Recombinant human NGF (Sigma) (human, UniProt P01138 122-241); test: cell-based or functional assay
[2] = biological target: Recombinant mouse NGF (R&D Systems) (mouse, UniProt P01139 122-241); test: cell-based or functional assay
Chain of Recombinant mouse NGF (R&D Systems) (P01139 122-241 limits assumed): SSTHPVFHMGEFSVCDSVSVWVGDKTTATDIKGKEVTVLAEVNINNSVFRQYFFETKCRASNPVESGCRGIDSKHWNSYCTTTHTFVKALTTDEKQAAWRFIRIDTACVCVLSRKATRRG

Chain of Recombinant human NGF (Sigma) (P01138 122-241 limits assumed): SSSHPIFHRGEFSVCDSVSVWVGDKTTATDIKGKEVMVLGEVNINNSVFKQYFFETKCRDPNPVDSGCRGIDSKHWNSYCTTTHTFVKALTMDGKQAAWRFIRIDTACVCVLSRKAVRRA

B1: MEDI-578 IgG1 TM YTE (antibody, V domains shown)
VH: QVQLVQSGAEVKKPGSSVKVSCKASGGTFSTYGISWVRQAPGQGLEWMGGIIPIFDTGNSAQSFQGRVTITADESTSTAYMELSSLRSEDTAVYYCARSSRIYDLNPSLTAYYDMDVWGQGTMVTVSS
VL: QSVLTQPPSVSAAPGQKVTISCSGSSSNIGNNYVSWYQQLPGTAPKLLIYDNNKRPSGIPDRFSGSKSGTSATLGITGLQTGDEADYYCGTWDSSLSAWVFGGGTKLTVL
B1 was tested, and the “IC50 (read off the curve)” value [1] was ~0.8 nM and the “IC50 (read off the curve)” value [2] was ~0.3 nM.
